According to patent US12065505B2, “Antibodies and antigen binding peptides for factor XIa inhibitors and uses thereof” (Bristol-Myers Squibb Company, priority 2021, dated 2024):
Where two headings read alike, the source gives them in different places.

B1: 26D5-295-G07-mAb: human IgG1f/kappa mAb; VH SEQ ID NO: 69, VL SEQ ID NO: 88 (antibody, V domains shown)
VH: EVQLVESGGGLIQPGGSLRLSCAASGFTVSSNYMSWVRQAPGKGLEWVSFIYPGGRTYYADSVKGRFTISRDNSKNTLYLQMNSLRAEDTAVYYCARGGFGGGDYWGQGTLVTVSS
VL: DIQMTQSPSSVSASVGDRVTITCRASQGISSNLAWYQQKPGKAPKLLIYAASSLQSGVPSRFSGSGSGTDFTLTISSLQPEDFATYYCQQANSFPLTFGGGTKVEIK
B2: 26D5-296-F03-mAb: human IgG1f/kappa mAb; VH SEQ ID NO: 70, VL SEQ ID NO: 88 (antibody, V domains shown)
VH: EVQLVESGGGLIQPGGSLRLSCAASGFQVSSNYMSWVRQAPGKGLEWVSFIYSGGRTYYADSVKGRFTISRDNSKNTLYLQMNSLRAEDTAVYYCARAGFGGGDYWGQGTLVTVSS
VL: DIQMTQSPSSVSASVGDRVTITCRASQGISSNLAWYQQKPGKAPKLLIYAASSLQSGVPSRFSGSGSGTDFTLTISSLQPEDFATYYCQQANSFPLTFGGGTKVEIK
B3: 26D5-296-G03-mAb: human IgG1f/kappa mAb; VH SEQ ID NO: 72, VL SEQ ID NO: 88 (antibody, V domains shown)
VH: EVQLVESGGGLIQPGGSLRLSCAASGFQVSSNYMSWVRQAPGKGLEWVSFIYPGGRTYYADSVKGRFTISRDNSKNTLYLQMNSLRAEDTAVYYCARAGFGGGDYWGQGTLVTVSS
VL: DIQMTQSPSSVSASVGDRVTITCRASQGISSNLAWYQQKPGKAPKLLIYAASSLQSGVPSRFSGSGSGTDFTLTISSLQPEDFATYYCQQANSFPLTFGGGTKVEIK
B4: 26D5-296-G08-mAb: human IgG1f/kappa mAb; VH SEQ ID NO: 70, VL SEQ ID NO: 95 (antibody, V domains shown)
VH: EVQLVESGGGLIQPGGSLRLSCAASGFQVSSNYMSWVRQAPGKGLEWVSFIYSGGRTYYADSVKGRFTISRDNSKNTLYLQMNSLRAEDTAVYYCARAGFGGGDYWGQGTLVTVSS
VL: DIQMTQSPSSVSASVGDRVTITCRASQYIESNLAWYQQKPGKAPKLLIYAASSLQSGVPSRFSGSGSGTDFTLTISSLQPEDFATYYCQQANSFPLTFGGGTKVEIK
B5: 26D5-296-F07-mAb: human IgG1f/kappa mAb; VH SEQ ID NO: 71, VL SEQ ID NO: 94 (antibody, V domains shown)
VH: EVQLVESGGGLIQPGGSLRLSCAASGFTVSSNYMSWVRQAPGKGLEWVSFIYSGGRTYYADSVKGRFTISRDNSKNTLYLQMNSLRAEDTAVYYCARAGFGGGDYWGQGTLVTVSS
VL: DIQMTQSPSSVSASVGDRVTITCRASQYISSNLAWYQQKPGKAPKLLIYAASSLQSGVPSRFSGSGSGTDFTLTISSLQPEDFATYYCQQANSFPLTFGGGTKVEIK
B6: 26D5-296-D08-mAb: human IgG1f/kappa mAb; VH SEQ ID NO: 69, VL SEQ ID NO: 95 (antibody, V domains shown)
VH: EVQLVESGGGLIQPGGSLRLSCAASGFTVSSNYMSWVRQAPGKGLEWVSFIYPGGRTYYADSVKGRFTISRDNSKNTLYLQMNSLRAEDTAVYYCARGGFGGGDYWGQGTLVTVSS
VL: DIQMTQSPSSVSASVGDRVTITCRASQYIESNLAWYQQKPGKAPKLLIYAASSLQSGVPSRFSGSGSGTDFTLTISSLQPEDFATYYCQQANSFPLTFGGGTKVEIK

Assay: SPR (Biacore) Protein A mAb capture, Compound A injected
Conditions: 37° C., binding to Compound A, for rank ordering only
Protocol: The binding of hybridoma expressed 26D5 parent mAb (VH SEQ ID NO: 83 and VL SEQ ID NO: 98 in IgG1 f format)(P1-072224) and affinity matured mAbs to Compound A was examined by SPR (Biacore™) using a protein A capture method. The running buffer was 1×PBS (phosphate buffered saline, pH 7.4) with 0.05% Tween 20 and 2% DMSO. Binding experiments were carried out at 37° C. Protein A was coated on a CM5 S-series sensor chip (Cytiva, Cat. No. 29149603) at high density (2000+ RUs of protein A). The immobilization of protein A was carried out using the standard amine coupling immobilization procedure recommended by the manufacturer. The affinity matured antibody was then captured at a concentration of 2 ug/mL on the protein A surface at a flow rate of 3 uL/min for 2 minutes. Compound A was then injected over the captured antibody at concentrations spanning 100-3 nM (100, 50, 25, 12.5, 6.25, 3.125 nM) (FIG. 10) and for screening concentrations spanning 100-3 nM (100, 33, 11 nM) for 2 minutes at a flow rate of 100 uL/min and allowed to dissociate for at least 450 seconds. The chip surface was regenerated after each cycle with a 40 second pulse of 10 mM Glycine, pH 1.5. Background binding to the protein A surface alone was used to subtract non-specific binding. All experiments were run on a Biacore T200 surface plasmon resonance instrument using Biacore T200 Control software v. 2. Data analysis was performed using Biacore T200 evaluation software v 3.1. Apparent affinities were determined for rank ordering only since dissociation rates were too slow to be measured by Biacore. The names of the mAbs in Table 10 refer to mAbs having the H and L chain sequences of the corresponding Fabs in Table 3 in an IgG1f format.

[1] = apparent affinity, read-out: KD

| Molecule | Kd [1] | Ka (apparent) | Kd (apparent) |
| --- | --- | --- | --- |
| B1 | 0.67 nM | 630000 M⁻¹ s⁻¹ | 0.00043 s⁻¹ |
| B2 | 0.54 nM | 720000 M⁻¹ s⁻¹ | 0.00039 s⁻¹ |
| B3 | 0.61 nM | 940000 M⁻¹ s⁻¹ | 0.00058 s⁻¹ |
| B4 | 0.49 nM | 800000 M⁻¹ s⁻¹ | 0.00039 s⁻¹ |
| B5 | 0.58 nM | 760000 M⁻¹ s⁻¹ | 0.00044 s⁻¹ |
| B6 | 0.59 nM | 770000 M⁻¹ s⁻¹ | 0.00045 s⁻¹ |
